# ± gives the standard deviation of the averaged measurements.
# B1: library; a variant is named by its letters at N, in order (parent)
# chain: GCUGUCACCGAGAAACUGUGAAGUAUAUCUUAAACCUGGGCACUUAAAAGAUAUAUGGAGUUAGUAGUGCAACCUGCUCGGUCUGAUGAGUCCNNNNNNGGACGAAACAGC
# Legend:
# cyclic di-GMP [1] = variants of: B1; experiment: normalized RNA/DNA level without ligand (relative to sTRSVctl = 100) (log10 (% of sTRSVctl)); HEK293T; ligand: cyclic di-GMP (c-di-GMP-II aptamer); higher = less ribozyme self-cleavage, higher mRNA level; details: reporter: mCherry (pCS4076), ligand present: no
# Method in brief: (§1)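 HEK293T cells received ligand, where used, 1 h before being transfected with 4 µg per 6-well well of library plasmids encoding reporter-linked ribozyme switches. After 72 h, RNA was extracted with EDTA and sequenced. RNA level was derived from RNA reads per DNA read, normalized to a spiked-in non-cleaving sequence or the top sequences, then scaled and log-transformed. Values were ×100 then log10, the top set was 25 sequences, and the minimum was 100 DNA reads.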
# cyclic di-GMP [2] = variants of: B1; experiment: normalized RNA/DNA level with ligand (relative to sTRSVctl = 100) (log10 (% of sTRSVctl)); HEK293T; ligand: cyclic di-GMP (c-di-GMP-II aptamer); ligand concentration (+) RNA-Seq: 1 mM; higher = less ribozyme self-cleavage, higher mRNA level; details: reporter: mCherry (pCS4076), ligand present: yes
# Method in brief: as §1
Variant,normalized RNA/DNA level without ligand (log10) (cyclic di-GMP [1]),normalized RNA/DNA level with ligand (log10) (cyclic di-GMP [2])
AUGUUU,1.56 ± 0.034,1.77 ± 0.15
AUGUUG,1.56 ± 0.036,1.72 ± 0.14
AUGUUC,1.681 ± 0.01,1.84 ± 0.1
CUUCUC,1.77 ± 0.049,1.86 ± 0.14
CUUCUG,1.78 ± 0.061,1.85 ± 0.057
CUUCUU,1.5858 ± 0.00043,1.75 ± 0.2
AUUGAC,1.663 ± 0.0079,1.79 ± 0.15
GUGCUU,1.71 ± 0.025,1.84 ± 0.14
GUGCUG,1.75 ± 0.024,1.86 ± 0.12
GUGCUA,1.646 ± 0.0015,1.8 ± 0.091
GUGCUC,1.505 ± 0.0047,1.65 ± 0.17
UUUCUC,1.8 ± 0.024,1.92 ± 0.085
UUUCUG,1.795 ± 0.012,1.92 ± 0.091
AUUCAU,1.74 ± 0.045,1.84 ± 0.11
AUUCAC,1.76 ± 0.021,1.88 ± 0.09
AUUCAA,1.58 ± 0.032,1.77 ± 0.15
UUUCAU,1.72 ± 0.035,1.83 ± 0.12
UUUCAA,1.712 ± 0.0062,1.86 ± 0.092
UUUCAG,1.75 ± 0.022,1.86 ± 0.1
UUUCAC,1.73 ± 0.093,1.84 ± 0.14

Variant,normalized RNA/DNA level without ligand (log10) (cyclic di-GMP [1]),normalized RNA/DNA level with ligand (log10) (cyclic di-GMP [2])
GUUACC,1.79 ± 0.059,1.9 ± 0.1
GUUACG,1.65 ± 0.075,1.81 ± 0.083
GUUACA,1.661 ± 0.0095,1.8 ± 0.11
AUGCUU,1.61 ± 0.025,1.8 ± 0.12
AUGCUG,1.68 ± 0.028,1.83 ± 0.074
AUGCUA,1.57 ± 0.034,1.77 ± 0.06
AUGCUC,1.74 ± 0.052,1.85 ± 0.046
UUGUAA,1.685 ± 0.015,1.86 ± 0.15
UUGUAC,1.74 ± 0.089,1.85 ± 0.18
AUGGAC,1.6 ± 0.055,1.76 ± 0.091
AUGGAG,1.55 ± 0.1,1.68 ± 0.084
UUGCCU,1.746 ± 0.0023,1.89 ± 0.091
UUGCCG,1.83 ± 0.058,1.91 ± 0.12
UUGCCC,1.83 ± 0.081,1.84 ± 0.2
UUUACA,1.73 ± 0.037,1.85 ± 0.1
UUUACG,1.83 ± 0.057,1.91 ± 0.12
UUUACU,1.75 ± 0.031,1.88 ± 0.092
UUUACC,1.75 ± 0.028,1.87 ± 0.058
AUGUAG,1.59 ± 0.017,1.77 ± 0.11
AUGUAA,1.54 ± 0.078,1.68 ± 0.14

Variant,normalized RNA/DNA level without ligand (log10) (cyclic di-GMP [1]),normalized RNA/DNA level with ligand (log10) (cyclic di-GMP [2])
AUGUCG,1.64 ± 0.035,1.76 ± 0.087
AUGUCA,1.59 ± 0.072,1.78 ± 0.066
AUGUCU,1.7 ± 0.028,1.84 ± 0.046
AUGUCC,1.74 ± 0.02,1.86 ± 0.15
UUGGAU,1.63 ± 0.032,1.83 ± 0.1
UUGGAC,1.665 ± 0.0078,1.78 ± 0.08
UUGGAG,1.6 ± 0.037,1.71 ± 0.066
CUUAGU,1.78 ± 0.051,1.88 ± 0.058
CUUAGG,1.79 ± 0.072,1.89 ± 0.13
CUUAGA,1.61 ± 0.024,1.79 ± 0.12
GUUAUU,1.679 ± 0.0041,1.83 ± 0.11
GUUAUC,1.51 ± 0.045,1.74 ± 0.067
GUGUCC,1.77 ± 0.045,1.86 ± 0.094
GUGUCU,1.72 ± 0.031,1.84 ± 0.13
GUGUCG,1.685 ± 0.012,1.79 ± 0.11
GUGUCA,1.75 ± 0.027,1.85 ± 0.11
UUGCGA,1.778 ± 0.01,1.88 ± 0.076
UUGCGG,1.84 ± 0.045,1.94 ± 0.04

# From the supplement of paper PMC6757056
